From US20260193348A1 (ANTENGENE BIOLOGICS, published 2026)
Changes are numbered by the printed parent chain. Names may count otherwise.

Assays:
[1] = molecular target: T1, CD3 on T cells / Jurkat cells (human, UniProt P07766 23-207; P04234 22-171; P09693 23-182); assay: FACS on CD3+ T cells isolated from normal donors
T1 construct: whole, on cells; Native CD3 complex on CD3+ T cells isolated from normal donors or on Jurkat cells; also called human CD3; CD3+ T cells

[2] = molecular target: T2, CD19 on NALM6 cells, Raji cells and primary B cells (human, UniProt P15391 20-556); assay: FACS on NALM6 cells expressing CD19, another experiment (FIG. 45B)
T2 construct: whole, on cells; Endogenous CD19 on human cell lines / donor B cells; also called NALM6 cells expressing CD19; Raji cells expressing CD19
T2 sequence (looked up): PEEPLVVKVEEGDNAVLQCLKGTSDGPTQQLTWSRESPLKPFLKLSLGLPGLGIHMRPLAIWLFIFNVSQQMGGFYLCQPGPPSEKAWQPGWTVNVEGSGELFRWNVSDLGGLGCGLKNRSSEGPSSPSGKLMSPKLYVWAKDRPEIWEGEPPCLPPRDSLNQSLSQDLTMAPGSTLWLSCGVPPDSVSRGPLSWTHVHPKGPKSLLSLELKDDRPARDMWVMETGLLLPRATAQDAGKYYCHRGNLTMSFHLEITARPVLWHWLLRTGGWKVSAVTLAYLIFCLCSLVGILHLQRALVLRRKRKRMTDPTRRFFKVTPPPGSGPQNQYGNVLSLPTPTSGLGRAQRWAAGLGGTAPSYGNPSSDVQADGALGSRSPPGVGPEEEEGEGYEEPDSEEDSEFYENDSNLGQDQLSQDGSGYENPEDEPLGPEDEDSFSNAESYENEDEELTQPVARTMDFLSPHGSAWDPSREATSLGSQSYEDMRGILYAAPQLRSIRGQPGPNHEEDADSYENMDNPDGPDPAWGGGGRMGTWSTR
Protocol: (§1) To evaluate the binding affinity of the generated bispecific antibodies to NALM6 cells, Raji cells, Primary B cells, DoHH2 cells, SU-DHL-1 cells and Jurkat cells, the NALM6 cells expressing CD19, Raji cells expressing CD19, Primary B cells, DoHH2 cells expressing CD20, SU-DHL-1 cells without expressing CD19 or CD20 and Jurkat cells expressing CD3 were stained by the test antibodies and the binding affinity was determined by FACS analysis. Primary B cells were isolated from healthy donors' PBMC by human B cell enrichment Kit (Stemcell #19054). The protocol of FACS analysis is described as follows: [0933] (a) The cells from each cell line above were harvested and centrifuged at 300 g for 5 min, and the supernatant were discarded. […] (b) The cells were washed 2 times with FACS buffer. [0935] (c) Step (a) was repeated. [0936] […] [0937] (e) Step (b) was repeated and the cells were resuspended with 100 μl/well diluted secondary antibody, and incubated at 4° C. for 45 minutes in the dark. [0938] (f) Step (b) was repeated and the cells were resuspended the cells with 150 μl/well FACS buffer and kept in dark for FACS analysis.

[3] = molecular target: T2, CD19 on NALM6 cells, Raji cells and …; assay: FACS on Raji cells expressing CD19 (FIG. 45C)
Protocol: as §1

[4] = molecular target: T2, CD19 on NALM6 cells, Raji cells and …; assay: FACS on primary B cells from healthy donors' PBMC (FIG. 45D)
Protocol: as §1

[5] = molecular target: T1, CD3 on T cells / Jurkat cells; assay: FACS on Jurkat cells expressing CD3
[6] = molecular target: T3, CD20 on DoHH2 cells (human, UniProt P11836 1-297); assay: FACS on DoHH2 cells expressing CD20 (FIG. 45E)
T3 construct: whole, on cells; Endogenous CD20 on the human DoHH2 cell line; also called DoHH2 cells expressing CD20
T3 sequence (looked up): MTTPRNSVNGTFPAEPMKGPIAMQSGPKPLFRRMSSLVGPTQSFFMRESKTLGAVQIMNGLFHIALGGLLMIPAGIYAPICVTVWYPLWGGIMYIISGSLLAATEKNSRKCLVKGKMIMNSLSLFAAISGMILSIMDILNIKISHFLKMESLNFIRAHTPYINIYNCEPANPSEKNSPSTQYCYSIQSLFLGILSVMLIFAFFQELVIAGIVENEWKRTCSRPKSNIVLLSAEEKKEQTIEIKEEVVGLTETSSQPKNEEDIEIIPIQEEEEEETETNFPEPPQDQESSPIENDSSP

[7] = molecular target: T4, GPRC5D on multiple myeloma cells (human, UniProt Q9NZD1 1-345); assay: FACS on MM.1S cells
T4 construct: whole, on cells; Endogenous GPRC5D on multiple myeloma cell lines; also called G-protein coupled receptor family C group 5 member D; MM.1S, MOLP-8, L363, RPMI8226 cells

[8] = molecular target: T4, GPRC5D on multiple myeloma cells; assay: FACS on multiple myeloma cell lines
[9] = molecular target: T1, CD3 on T cells / Jurkat cells; assay: FACS on Jurkat cells

T1 sequence (P07766 23-207, chain 1 of 3): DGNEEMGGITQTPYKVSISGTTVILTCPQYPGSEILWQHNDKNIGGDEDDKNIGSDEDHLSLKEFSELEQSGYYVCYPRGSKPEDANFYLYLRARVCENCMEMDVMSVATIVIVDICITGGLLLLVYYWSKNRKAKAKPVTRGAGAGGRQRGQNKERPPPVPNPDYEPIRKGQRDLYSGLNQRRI
T1 sequence (P04234 22-171, chain 2 of 3): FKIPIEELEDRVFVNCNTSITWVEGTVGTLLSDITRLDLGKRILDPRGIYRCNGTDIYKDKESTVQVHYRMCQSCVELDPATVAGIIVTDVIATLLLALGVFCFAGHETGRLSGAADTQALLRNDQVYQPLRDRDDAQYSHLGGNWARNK
T1 sequence (P09693 23-182, chain 3 of 3): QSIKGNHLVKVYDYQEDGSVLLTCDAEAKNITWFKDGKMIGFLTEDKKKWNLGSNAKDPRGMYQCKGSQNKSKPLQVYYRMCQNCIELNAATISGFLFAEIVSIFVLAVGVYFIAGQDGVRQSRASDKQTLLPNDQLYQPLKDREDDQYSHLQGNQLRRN
T4 sequence (Q9NZD1 whole entry): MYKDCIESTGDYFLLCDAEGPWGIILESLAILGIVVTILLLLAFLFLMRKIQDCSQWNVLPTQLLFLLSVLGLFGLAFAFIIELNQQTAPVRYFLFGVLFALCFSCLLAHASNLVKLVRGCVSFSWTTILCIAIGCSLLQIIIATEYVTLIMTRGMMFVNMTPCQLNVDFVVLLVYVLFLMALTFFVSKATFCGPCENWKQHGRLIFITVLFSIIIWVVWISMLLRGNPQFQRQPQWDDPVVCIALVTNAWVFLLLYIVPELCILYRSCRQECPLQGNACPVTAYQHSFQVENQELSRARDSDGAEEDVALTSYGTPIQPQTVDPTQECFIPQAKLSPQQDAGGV

B1: Bis-GD2-Fab3 (bispecific antibody, V domains shown)
VH 1: QVQLVESGPGVVQPGRSLRISCAVSGFSVTNYGVHWVRQPPGKGLEWLGVIWAGGITNYNSAFMSRLTISKDNSKNTVYLQMNSLRAEDTAMYYCASRGGHYGYALDYWGQGTLVTVSS
VL 1: EIVMTQTPATLSVSAGERVTITCKASQSVSNDVTWYQQKPGQAPRLLIYSASNRYSGVPARFSGSGYGTEFTFTISSVQSEDFAVYFCQQDYSSFGQGTKLEIK
VH 2: EVQLQLSGPELVKPGASVKMSCKASGYTFSSYVIHWVKQKPGQGLEWIGYINPYNDVIKYNEKFKGKATLTSDKSSSTAYMELSSLTSEDSAVYYCARDSYYSYDGFAYWGQGTLVTVSA
VL 2: QIVLTQSPAIMSASPGEKVTMTCSASSSVSYMHWYQQKSGTSPKRWIYDTSKLASGVPARFSGSGSGTSYSLTISSMEAEDAATYYCQQWSSNPPTFGGGTKVEIK
notes: Fab3 format of WO2019154890A1: two anti-GD2 Fabs (humanized 3F8) and one anti-CD3 Fab (40-C12-C10-E9); also called Fab3 GD2xCD3 bispecific antibody
binding result [1]: binds

B2: ATG201-N55S-19B (bispecific antibody, human IgG1, kappa, L234A L235A)
heavy 1: not shown
heavy 2: QVQLQQSGAELVRPGSSVKISCKASGYAFSSYWMNWVKQRPGQGLEWIGQIWPGDGDTNYNGKFKGKATLTADESSSTAYMQLSSLASEDSAVYFCARRETTTVGRYYYAMDYWGQGTTVTVSSASTKGPSVFPLAPSSKSTSGGTAALGCLVKDYFPEPVTVSWNSGALTSGVHTFPAVLQSSGLYSLSSVVTVPSSSLGTQTYICNVNHKPSNTKVDKKVEPKSCGGGGSGGGGSEVQLVQSGAEVKKPGSSVKVSCKASGYTFSSYVIHWVRQAPGQCLEWMGYINPYSDVIKYNEKFKGRVTLTSDKSTSTAYMELSSLRSEDTAVYYCARDSYYSYDGFAYWGQGTLVTVSSGGGGSGGGGSGGGGSGGGGSEIVLTQSPDFQSVTPKEKVTITCSASSSVSYMHWYQQKPDQSPKRLIYDTSKLASGVPSRFSGSGSGTDFTLTINSLEAEDAATYYCQQWSSNPPTFGCGTKVEIKGGGGSGGGGSDKTHTCPPCPAPEAAGGPSVFLFPPKPKDTLMISRTPEVTCVVVDVSHEDPEVKFNWYVDGVEVHNAKTKPREEQYNSTYRVVSVLTVLHQDWLNGKEYKCKVSNKALPAPIEKTISKAKGQPREPQVCTLPPSREEMTKNQVSLSCAVKGFYPSDIAVEWESNGQPENNYKTTPPVLDSDGSFFLVSKLTVDKSRWQQGNVFSCSVMHEALHNHYTQKSLSLSPGK
light: not shown
notes: CD19xCD3 Fab-scFv-Fab: two C19B Fabs, anti-CD3 scFv 40E9-L2H3-N55S.H; L234A/L235A
EC50 [2]: 0.513 nM | EC50 [3]: 1.11 nM | EC50 [4]: 0.442 nM | binding result [5]: binds

B3: ATG201-Y101F-19B (bispecific antibody, human IgG1, kappa, L234A L235A)
heavy 1: not shown
heavy 2: B2 heavy 2 with S292N, Y338F
light: not shown
notes: CD19xCD3 Fab-scFv-Fab: two C19B Fabs, anti-CD3 scFv 40E9-L2H3-Y101F.H; L234A/L235A
EC50 [2]: 0.508 nM | EC50 [3]: 1.11 nM | EC50 [4]: 0.359 nM | binding result [5]: binds

B4: ATG201-Y101F-200 (bispecific antibody, human IgG1, kappa, L234A L235A)
heavy 1: not shown
heavy 2: EVQLVESGGGLVQPGRSLRLSCAASGFTFNDYAMHWVRQAPGKGLEWVSTISWNSGSIGYADSVKGRFTISRDNAKKSLYLQMNSLRAEDTALYYCAKDIQYGNYYYGMDVWGQGTTVTVSSASTKGPSVFPLAPSSKSTSGGTAALGCLVKDYFPEPVTVSWNSGALTSGVHTFPAVLQSSGLYSLSSVVTVPSSSLGTQTYICNVNHKPSNTKVDKKVEPKSCGGGGSGGGGSEVQLVQSGAEVKKPGSSVKVSCKASGYTFSSYVIHWVRQAPGQCLEWMGYINPYNDVIKYNEKFKGRVTLTSDKSTSTAYMELSSLRSEDTAVYYCARDSFYSYDGFAYWGQGTLVTVSSGGGGSGGGGSGGGGSGGGGSEIVLTQSPDFQSVTPKEKVTITCSASSSVSYMHWYQQKPDQSPKRLIYDTSKLASGVPSRFSGSGSGTDFTLTINSLEAEDAATYYCQQWSSNPPTFGCGTKVEIKGGGGSGGGGSDKTHTCPPCPAPEAAGGPSVFLFPPKPKDTLMISRTPEVTCVVVDVSHEDPEVKFNWYVDGVEVHNAKTKPREEQYNSTYRVVSVLTVLHQDWLNGKEYKCKVSNKALPAPIEKTISKAKGQPREPQVCTLPPSREEMTKNQVSLSCAVKGFYPSDIAVEWESNGQPENNYKTTPPVLDSDGSFFLVSKLTVDKSRWQQGNVFSCSVMHEALHNHYTQKSLSLSPGK
light: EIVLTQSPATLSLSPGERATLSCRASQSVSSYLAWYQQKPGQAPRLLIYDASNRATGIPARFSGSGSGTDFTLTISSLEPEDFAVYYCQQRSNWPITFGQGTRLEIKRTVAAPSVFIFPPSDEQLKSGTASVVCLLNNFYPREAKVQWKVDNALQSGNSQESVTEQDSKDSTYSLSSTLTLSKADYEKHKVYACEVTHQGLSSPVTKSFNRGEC
notes: L234A/L235A; also called ATG201-Y101F-20O
EC50 [6]: 7.55 nM | binding result [5]: binds

B5: ATG201-N55S-200 (bispecific antibody, human IgG1, kappa, L234A L235A)
heavy 1: not shown
heavy 2: B4 heavy 2 with N290S, F336Y
light: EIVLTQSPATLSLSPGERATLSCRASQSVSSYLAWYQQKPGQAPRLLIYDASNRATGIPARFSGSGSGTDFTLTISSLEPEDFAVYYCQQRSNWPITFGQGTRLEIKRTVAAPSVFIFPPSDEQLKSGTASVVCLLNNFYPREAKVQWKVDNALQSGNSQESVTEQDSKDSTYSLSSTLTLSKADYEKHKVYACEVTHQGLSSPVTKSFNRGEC
notes: L234A/L235A; also called ATG201-N55S-20O
EC50 [6]: 4.89 nM | binding result [5]: binds

B6: ATG-Bis-40E9 (bispecific antibody)
VH: EVQLQQSGPELVKPGASVKMSCKASGYTFTSYVIHWVKQKTGQGLEWIGYFNPYNDGTKYNEEFKGKATLTSDKSSNTAYMELNSLTSDDSAVYFCARGGVRRYFDVWGAGTTVTVSS
VL: DIQMTQSPSSLSASLGERVSLTCRASQDIGSNLNWLQQEPDGTIKRLIYATFGLDSGVPKRFSGSRSGSDYSLTISSLESEDFVDYYCQQYASFPYTFGGGTKLEIK
scFv: EVQLQLSGPELVKPGASVKMSCKASGYTFSSYVIHWVKQKPGQGLEWIGYINPYNDVIKYNEKFKGKATLTSDKSSSTAYMELSSLTSEDSAVYYCARDSYYSYDGFAYWGQGTLVTVSAGGGGSGGGGSGGGGSGGGGSQIVLTQSPAIMSASPGEKVTMTCSASSSVSYMHWYQQKSGTSPKRWIYDTSKLASGVPARFSGSGSGTSYSLTISSMEAEDAATYYCQQWSSNPPTFGGGTKVEIK
notes: L234A/L235A; also called chimeric 2+1 bispecific antibody; parental antibody
binding result [7]: binds | binding result [1]: binds

B7: Bis-GD2-Fab2-scFv (bispecific antibody)
VH: B1 VH 1
VL: B1 VL 1
scFv: B6 scFv
notes: Two anti-GD2 Fabs (humanized 3F8) and one anti-CD3 scFv (40-C12-C10-E9) joined by (GGGGS)2 linkers to CH1 of one Fab and to CH2; L234A/L235A; also called Fab-scFv-Fab GD2xCD3 bispecific antibody
binding result [1]: binds

B8: Bis-40E9-L2H3-Y101F.H (bispecific antibody)
VH: EVQLVQSGAEVKKPGASVKVSCKASGYTFTSYVIHWVRQAPGQGLEWMGYFNPYNDGTKYNEEFKGRVTLTSDKSTSTAYMELRSLRSDDTAVYYCARGGVRRYFDVWGQGTTVTVSS
VL: DIQMTQSPSSLSASVGDRVTITCRASQDIGSNLNWLQQKPGKAIKRLIYATFGLDSGVPSRFSGSRSGTDFTLTISSLQPEDFATYYCQQYASFPYTFGGGTKVEIK
scFv: EVQLVQSGAEVKKPGSSVKVSCKASGYTFSSYVIHWVRQAPGQCLEWMGYINPYNDVIKYNEKFKGRVTLTSDKSTSTAYMELSSLRSEDTAVYYCARDSFYSYDGFAYWGQGTLVTVSSGGGGSGGGGSGGGGSGGGGSEIVLTQSPDFQSVTPKEKVTITCSASSSVSYMHWYQQKPDQSPKRLIYDTSKLASGVPSRFSGSGSGTDFTLTINSLEAEDAATYYCQQWSSNPPTFGCGTKVEIK
notes: L234A/L235A
binding result [8]: binds | binding result [9]: binds

B9: Bis-40E9-L2H3-Y54G.H (bispecific antibody)
VH: B8 VH
VL: B8 VL
scFv: B8 scFv with Y54G, F101Y
notes: L234A/L235A
binding result [8]: binds | binding result [9]: binds

B10: Bis-40E9-L2H3-D105R.H (bispecific antibody)
VH: B8 VH
VL: B8 VL
scFv: B8 scFv with F101Y, D105R
notes: L234A/L235A
binding result [8]: binds | binding result [9]: binds
